Assay results: patent US20260028387A1 (published 2026)

Target: T1, HLA-A*02:01 (peptide-receptive MHC class I molecule of the UV-ligand exchange assay) (human)
T1 construct: MHC monomer first loaded with a UV-sensitive peptide (not identified) that is cleaved by UV light and exchanged for the test peptide; captured on streptavidin plates
Experiment: UV-ligand exchange, anti-b2m ELISA; peptide exchange yield grade (>=10% = +; >=20% = ++; >=50 = +++; >=75% = ++++)
Text: Candidate peptides for T cell based therapies according to the present invention were further tested for their MHC binding capacity (affinity). The individual peptide-MHC complexes were produced by UV-ligand exchange, where a UV-sensitive peptide is cleaved upon UV-irradiation, and exchanged with the peptide of interest as analyzed. Only peptide candidates that can effectively bind and stabilize the peptide-receptive MHC molecules prevent dissociation of the MHC complexes. To determine the yield of the exchange reaction, an ELISA was performed based on the detection of the light chain (β2m) of stabilized MHC complexes. The assay was performed as generally described in Rodenko et al. (Rodenko et al., 2006).
96 well MAXISorp plates (NUNC) were coated aver night with 2 ug/ml streptavidin in PBS at room temperature, washed 4× and blocked for 1 h at 37° C. in 2% BSA containing blocking buffer. Refolded HLA-A*02:01/MLA-001 monomers served as standards, covering the range of 15-500 ng/ml. Peptide-MHC monomers of the UV-exchange reaction were diluted 100 fold in blocking buffer. Samples were incubated for 1 h at 37° C., washed four times, incubated with 2 ug/ml HRP conjugated anti-02m for 1 h at 37° C., washed again and detected with TMB solution that is stopped with […]. Absorption was measured at 450 nm. Candidate peptides that show a high exchange yield (preferably higher than 50%, most preferred higher than 75%) are generally preferred for a generation and production of antibodies or fragments thereof, and/or T cell receptors or fragments thereof, as they show sufficient avidity to the MHC molecules and prevent dissociation of the MHC complexes.

Binder | peptide exchange yield
TASAITPSV (synthetic peptide; source gene KRT5) [TASAITPSV (SEQ ID NO: 3)] | 50 to 75%
VAIGGVDGNVRL (synthetic peptide; source gene WDR1) [VAIGGVDGNVRL (SEQ ID NO: 52)] | 20 to 50%
YTAQIGADIAL (synthetic peptide; source genes TPSB2, TPSAB1) [YTAQIGADIAL (SEQ ID NO: 46)] | 50 to 75%
SLDGTELQL (synthetic peptide; source gene TMEM102) [SLDGTELQL (SEQ ID NO: 29)] | 50 to 75%
NLREGDQLL (synthetic peptide; source gene AHNAK2) [NLREGDQLL (SEQ ID NO: 27)] | 50 to 75%
FLLDQVQLGL (synthetic peptide; source gene TSPAN10) [FLLDQVQLGL (SEQ ID NO: 18)] | 50 to 75%
GLDVTSLRPFDL (synthetic peptide; source gene FLNA) [GLDVTSLRPFDL (SEQ ID NO: 33)] | 50 to 75%
MLAEKLLQA (synthetic peptide; source gene FAT1) [MLAEKLLQA (SEQ ID NO: 26)] | 10 to 20%
VVMEELLKV (synthetic peptide; source gene CYFIP1) [VVMEELLKV (SEQ ID NO: 60)] | 20 to 50%
NLMASQPQL (synthetic peptide; source gene PKP1) [NLMASQPQL (SEQ ID NO: 5)] | 50 to 75%
SMHQMLDQTL (synthetic peptide; source gene TPM1) [SMHQMLDQTL (SEQ ID NO: 48)] | 20 to 50%
VLPKLYVKL (synthetic peptide; source genes RPS26P11, RPS26, RPS26P28, RPS26P15, RPS26P25, RPS26P58) [VLPKLYVKL (SEQ ID NO: 31)] | 20 to 50%
KLNDTYVNV (synthetic peptide; source gene TMEM194A) [KLNDTYVNV (SEQ ID NO: 22)] | 50 to 75%
YTQPFSHYGQAL (synthetic peptide; source gene RNPEP) [YTQPFSHYGQAL (SEQ ID NO: 37)] | 50 to 75%
KLSDSATYL (synthetic peptide) [KLSDSATYL (SEQ ID NO: 23)] | 50 to 75%
GAIDLLHNV (synthetic peptide; source gene GBP5) [GAIDLLHNV (SEQ ID NO: 55)] | 20 to 50%
MLTELEKAL (synthetic peptide; source gene S100A8) [MLTELEKAL (SEQ ID NO: 45)] | 20 to 50%
SLLDTLREV (synthetic peptide; source gene PPP4R1) [SLLDTLREV (SEQ ID NO: 59)] | 50 to 75%
GLAFSLYQA (synthetic peptide; source gene SERPINH1) [GLAFSLYQA (SEQ ID NO: 40)] | 20 to 50%
TQTTHELTI (synthetic peptide; source gene PCBP1) [TQTTHELTI (SEQ ID NO: 61)] | 50 to 75%
GLAPFLLNAV (synthetic peptide; source gene FAM115C) [GLAPFLLNAV (SEQ ID NO: 19)] | 50 to 75%
ATGNDRKEAAENSL (synthetic peptide; source gene YWHAE) [ATGNDRKEAAENSL (SEQ ID NO: 44)] | 50 to 75%
ALWLPTDSATV (synthetic peptide; source gene LAMB3) [ALWLPTDSATV (SEQ ID NO: 11)] | 50 to 75%
LVRDTQSGSL (synthetic peptide; source gene SERPINH1) [LVRDTQSGSL (SEQ ID NO: 39)] | 20 to 50%
ALVEVTEHV (synthetic peptide; source gene TMEM132A) [ALVEVTEHV (SEQ ID NO: 56)] | 20 to 50%
STYGGGLSV (synthetic peptide; source gene KRT14, KRT16) [STYGGGLSV (SEQ ID NO: 1)] | 50 to 75%
RLPNAGTQV (synthetic peptide; source gene ITGA6) [RLPNAGTQV (SEQ ID NO: 14)] | ≥ 75%

Binder | peptide exchange yield
GLAPNTPGKA (synthetic peptide; source gene PRC1) [GLAPNTPGKA (SEQ ID NO: 57)] | 50 to 75%
LLSGDLIFL (synthetic peptide; source gene GJB5) [LLSGDLIFL (SEQ ID NO: 6)] | 50 to 75%
GLASRILDA (synthetic peptide; source gene LAMB3) [GLASRILDA (SEQ ID NO: 12)] | 50 to 75%
TQTAVITRI (synthetic peptide; source gene FAM83D) [TQTAVITRI (SEQ ID NO: 42)] | 10 to 20%
VVVTGLTLV (synthetic peptide; source gene ARHGDIA) [VVVTGLTLV (SEQ ID NO: 53)] | 20 to 50%
LLPPPPPPA (synthetic peptide; source gene ADAMTS2) [LLPPPPPPA (SEQ ID NO: 25)] | 50 to 75%
LLRFSQDNA (synthetic peptide; source gene LAP3) [LLRFSQDNA (SEQ ID NO: 35)] | 50 to 75%
MISRTPEV (synthetic peptide; source genes F7, IGHV4-31, IGHG1, IGHG2, IGHG3, IGHG4, IGHM) [MISRTPEV (SEQ ID NO: 17)] | 20 to 50%
SLYNLGGSKRISI (synthetic peptide; source gene KRT5) [SLYNLGGSKRISI (SEQ ID NO: 2)] | ≥ 75%
FLLRFSQDNA (synthetic peptide; source gene LAP3) [FLLRFSQDNA (SEQ ID NO: 36)] | 20 to 50%
IVREFLTAL (synthetic peptide; source gene CRCP) [IVREFLTAL (SEQ ID NO: 21)] | 50 to 75%
SLDGFTIQV (synthetic peptide; source gene OAS2) [SLDGFTIQV (SEQ ID NO: 28)] | 20 to 50%
SLSPVILGV (synthetic peptide; source gene IL36RN) [SLSPVILGV (SEQ ID NO: 13)] | ≥ 75%
LLFAGTMTV (synthetic peptide; source gene CYP2S1) [LLFAGTMTV (SEQ ID NO: 24)] | 20 to 50%
GLESEELEPEEL (synthetic peptide; source gene PABPN1) [GLESEELEPEEL (SEQ ID NO: 41)] | 20 to 50%
SLNGNQVTV (synthetic peptide; source gene QSER1) [SLNGNQVTV (SEQ ID NO: 30)] | 10 to 20%
VLASGFLTV (synthetic peptide; source gene TTPAL) [VLASGFLTV (SEQ ID NO: 47)] | ≥ 75%
GLMKDIVGA (synthetic peptide; source gene KYNU) [GLMKDIVGA (SEQ ID NO: 49)] | 50 to 75%
SLVSEQLEPA (synthetic peptide; source gene PKP3) [SLVSEQLEPA (SEQ ID NO: 34)] | 50 to 75%
LLANGVYAA (synthetic peptide; source gene ANO1) [LLANGVYAA (SEQ ID NO: 15)] | 10 to 20%
KLFGHLTSA (synthetic peptide; source gene PHTF2) [KLFGHLTSA (SEQ ID NO: 51)] | 20 to 50%
IAAIRGFLV (synthetic peptide; source gene ABHD11) [IAAIRGFLV (SEQ ID NO: 38)] | 50 to 75%
LILESIPVV (synthetic peptide; source gene MAPK6) [LILESIPVV (SEQ ID NO: 58)] | 20 to 50%
YQDLLNVKM (synthetic peptide; source genes DES, NEFM, NEFH, NEFL, VIM, INA) [YQDLLNVKM (SEQ ID NO: 54)] | 50 to 75%
YMLDIFHEV (synthetic peptide; source gene HAS3) [YMLDIFHEV (SEQ ID NO: 32)] | 20 to 50%
KVVGKDYLL (synthetic peptide; source gene CAPZB) [KVVGKDYLL (SEQ ID NO: 43)] | 10 to 20%
VLAEGGEGV (synthetic peptide; source gene PDPN) [VLAEGGEGV (SEQ ID NO: 16)] | 50 to 75%
